We go through 3 molecules from patent US20260248940A1, “Antibody-Drug Conjugates and Uses Thereof” (Vivasor, Inc., priority 2023, published 2026).

One data set has as its system Calu6 (B7-H3+) cells. The data set can be described thus: Cell viability assay (CellTiter-Glo 2.0, 120-hour) in Calu6 cells. Conditions: Homo sapiens, Calu-6; Table 4A; Calu6, B7-H3 positive; 120-hour treatment. It is filed as cell-based.
A further data set concerns NCI-H929 (B7-H3−) cells. The data set can be described thus: Cell viability assay (CellTiter-Glo 2.0, 120-hour) in NCI-H929 cells. Conditions: Homo sapiens; Table 4A; NCI-H929, B7-H3 negative; 120-hour treatment. It is filed as cell-based.
The next data set has as its system Hs700T (B7-H3+) cells. The data set can be described thus: Cell viability assay (CellTiter-Glo 2.0, 120-hour) in Hs700T cells. It counts as cell-based. The conditions noted are these: Homo sapiens, Hs 700T, Table 4A, B7-H3 positive, 120-hour treatment. Background: Cellular ATP, detected with luciferase, serves as a proxy for viable cell number.
A further data set deals with U2OS (B7-H3+) cells. The data set can be described thus: Cell viability assay (CellTiter-Glo 2.0, 120-hour) in U2OS cells. The conditions noted are these: Homo sapiens, Table 4A, B7-H3 positive, 120-hour treatment. It is filed as cell-based.
The next data set has as its system PA-1 (B7-H3+) cells. The data set can be described thus: Cell viability assay (CellTiter-Glo 2.0, 120-hour) in PA-1 cells. It counts as cell-based. Conditions: Homo sapiens; Table 4A; PA-1, B7-H3 positive; 120-hour treatment.
Data set [1] deals with T1, human B7-H3 protein (human, UniProt Q5ZPR3 29-534).
T1 construct: Endogenous B7-H3 on human cancer cell lines; also called CD276; B7-H3 receptor
T1 sequence: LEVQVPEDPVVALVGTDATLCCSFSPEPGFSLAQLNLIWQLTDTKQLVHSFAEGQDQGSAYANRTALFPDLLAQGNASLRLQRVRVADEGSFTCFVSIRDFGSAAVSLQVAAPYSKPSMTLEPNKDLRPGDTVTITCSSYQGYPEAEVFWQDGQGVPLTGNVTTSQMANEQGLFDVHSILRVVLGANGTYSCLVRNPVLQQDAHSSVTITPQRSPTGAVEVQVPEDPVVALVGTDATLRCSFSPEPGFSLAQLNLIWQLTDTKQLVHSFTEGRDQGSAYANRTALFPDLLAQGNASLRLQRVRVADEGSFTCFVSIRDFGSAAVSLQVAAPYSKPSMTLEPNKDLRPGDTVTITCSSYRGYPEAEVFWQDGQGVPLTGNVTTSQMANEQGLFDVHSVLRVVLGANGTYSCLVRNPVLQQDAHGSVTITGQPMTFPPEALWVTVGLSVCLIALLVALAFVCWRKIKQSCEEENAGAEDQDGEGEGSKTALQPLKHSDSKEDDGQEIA
The data set can be described thus: flow cytometry on FaDu cells, PE-labelled goat anti-human secondary antibody, geometric mean fluorescence. As to the method: (§1) B7-H3 binding: Tumor cell cultures were harvested by non-enzymatic cell dissociation and plated in RPMI1640 supplemented with 10% fetal bovine serum (FBS) in a 96 well plate. A dilution curve of B7H3 antibody was prepared as a 2× solution and added to each well and incubated at 4C for 1 hour. The cells were washed with PBS+2% FBS+5 mM EDTA (FACS Buffer) before incubation with R-Phycoerythrin labeled goat anti-human secondary antibody for 1 hour at 4C. Cells were washed with FACS buffer and analyzed by flow cytometry.
Background: In flow cytometry, cells or beads pass a laser one at a time.

Data set [2] addresses T1, human B7-H3 protein. The data set can be described thus: flow cytometry on SkNBE(2) cells, PE-labelled goat anti-human secondary antibody, geometric mean fluorescence. The method, then:
as §1

Data set [3] has as its target T1, human B7-H3 protein. The data set can be described thus: flow cytometry on Hs700T cells, PE-labelled goat anti-human secondary antibody, geometric mean fluorescence. As to the method: as §1
Data set [4] concerns the target T1, human B7-H3 protein. The data set can be described thus: flow cytometry on U2OS cells, PE-labelled goat anti-human secondary antibody, geometric mean fluorescence. As to the method:
as §1

The target of data set [5] is T1, human B7-H3 protein. The data set can be described thus: flow cytometry on MDA-MB-231 cells, PE-labelled goat anti-human secondary antibody, geometric mean fluorescence. The method, then: as §1
The target of data set [6] is T1, human B7-H3 protein. The data set can be described thus: flow cytometry on A549 cells, PE-labelled goat anti-human secondary antibody, geometric mean fluorescence. The method, then:
as §1

Data set [7] deals with T1, human B7-H3 protein. The data set can be described thus: flow cytometry on HCT-116 cells, PE-labelled goat anti-human secondary antibody, geometric mean fluorescence. As to the method: as §1
Data set [8] concerns B7-H3-expressing renal cell and bladder carcinoma. The conditions noted are these: Loo et al., 2012; cited from earlier work.
The conditions of data set [9]: cynomolgus monkeys; Loo et al., 2012; cited from earlier work.

By EC50 is commonly meant the concentration that produces a half-maximal response. Low values mean a more potent agent, high ones a less potent agent. The term EC50 (read off the curve) denotes the concentration that produces a half-maximal response. A higher EC50 (read off the curve) goes with a need for much substance. What is called Kd is a measure of binding affinity in units of concentration. Higher therefore signals lower affinity.

Turning to `CC[C@@]1(O)C(=O)OCc2c1cc1n(c2=O)Cc2c-1nc1cc(F)c(C)c3c1c2[C@@H](NC(=O)CO)CC3` [Dxd], the half-maximal effective concentration (EC50) in the data set with Calu6 (B7-H3+) cells amounted to 7 nM; in the data set with NCI-H929 (B7-H3−) cells it was 4.7 nM; in the data set on Hs700T (B7-H3+) cells, 43.9 nM; in the data set on U2OS (B7-H3+) cells, 337 nM; in the data set on PA-1 (B7-H3+) cells it was 2 nM.

B1: anti-B7-H3 antibody (B7-H3 VA clone) (antibody, V domains shown)
VH: QVQLVQSGAEVKKPGASVKVSCKASGYTFTDSYMHWVRQAPGQGLEWMGWISPRTGGTDYAQKFQGRVTMTRDTSISTAYMELSRLRSDDTAVYYCARGSSRGNDYWGQGTLVTVSS
VL: QSVLTQPASVSGSPGQSITISCTGTGSDVGGYNYVSWYQQHPGKAPKLIIYDVTKRPSGFSNRFSGSKSGNTASLTISGLQAEDEADYYCSSYTSRRTYVFGTGTKLTVL
notes: IgG/IgG1 appears only as an embodiment; It was detected with a goat anti-human secondary antibody; also called anti-B7H3 VA clone; Sorrento's VA clone
For B1, the results for the “EC50 (read off the curve)” value in the data set with human B7-H3 protein [1], with human B7-H3 protein [3] and with human B7-H3 protein [4] were about 0.2 nM, about 0.5 nM and about 0.3 nM, respectively. In addition, the Kd with human B7-H3 protein [1] worked out at 0.2 nM; with human B7-H3 protein [2], 0.0968 nM; with human B7-H3 protein [3] it was 0.485 nM; with human B7-H3 protein [4], 0.257 nM; with human B7-H3 protein [5], 0.168 nM; with human B7-H3 protein [6], 0.192 nM. The molecule also came in with an equilibrium dissociation constant (Kd) with human B7-H3 protein [7] of 0.238 nM.

B2: Enoblituzumab (antibody, chains of the INN, looked up)
heavy: EVQLVESGGGLVQPGGSLRLSCAASGFTFSSFGMHWVRQAPGKGLEWVAYISSDSSAIYYADTVKGRFTISRDNAKNSLYLQMNSLRDEDTAVYYCGRGRENIYYGSRLDYWGQGTTVTVSSASTKGPSVFPLAPSSKSTSGGTAALGCLVKDYFPEPVTVSWNSGALTSGVHTFPAVLQSSGLYSLSSVVTVPSSSLGTQTYICNVNHKPSNTKVDKRVEPKSCDKTHTCPPCPAPELVGGPSVFLLPPKPKDTLMISRTPEVTCVVVDVSHEDPEVKFNWYVDGVEVHNAKTKPPEEQYNSTLRVVSVLTVLHQDWLNGKEYKCKVSNKALPAPIEKTISKAKGQPREPQVYTLPPSREEMTKNQVSLTCLVKGFYPSDIAVEWESNGQPENNYKTTPLVLDSDGSFFLYSKLTVDKSRWQQGNVFSCSVMHEALHNHYTQKSLSLSPG
light: DIQLTQSPSFLSASVGDRVTITCKASQNVDTNVAWYQQKPGKAPKALIYSASYRYSGVPSRFSGSGSGTDFTLTISSLQPEDFATYYCQQYNNYPFTFGQGTKLEIKRTVAAPSVFIFPPSDEQLKSGTASVVCLLNNFYPREAKVQWKVDNALQSGNSQESVTEQDSKDSTYSLSSTLTLSKADYEKHKVYACEVTHQGLSSPVTKSFNRGEC
notes: "Enoblituzumab (MGA271; from Macrogenics), a humanized mAb targeting B7-H3"
On to B2, for which the “antitumor activity in xenograft models” value in data set [8] is “potent antitumor activity”. Further, the “safety findings in toxicology studies” value in data set [9] is recorded as “no significant safety findings”.
